Measured values as given in US20170073395A1 (Pfizer, published 2017).

What was measured:
Assay in all cases: Biacore specificity assay: IgG immobilised (about 300 RU), antigen injected at 500 nM
hTRKB = biological target: T1, hTRKB (human, UniProt Q16620 32-430, limits assumed)
T1 construct: Non-target panel protein
Method: (§1) Biacore specificity analyses were performed using the T-200 biosensor, series S CM5 chips, an amine-coupling kit, 10 mM sodium acetate immobilization buffer at pH 5.0, 10× HBS-P running buffer and NaOH for regeneration (GE Healthcare). A predefined ligand (IgG) immobilization program was set up to immobilize approximately 300 Response Units (RU) on the flow cell for each IgG to be tested. For Anti-RAGE and anti-A33, a panel of fully-purified recombinant target and non-target antigens were diluted in HBS-P running buffer to a final concentration of 500 nM. Four groups of antigens were examined, including: cell membrane proteins (mTRKB, hTRKB, mEGFR, hEGFR, hFceR1, hIL-21R, mICAM1, mICAM2, hICAM1, hCD33, hLAMP-1, hLOX-1, and), soluble signaling molecules (mTNFa, hVEGF, hCXCL13) and albumins (BSA, HSA and MSA). These proteins were injected at 50 μl/min for 3 min, followed by a 5 sec pulse of 20 mM NaOH for regeneration of the chip surface. For pTau, a series of pTau-derived phosphorylated and non-phosphorylated peptides were flowed, as in Shih et al.³. All sensorgrams were analyzed using the Biacore T-200 evaluation software.

mICAM2 = biological target: T2, mICAM2 (mouse, UniProt P35330 23-222, limits assumed)
T2 construct: Non-target panel protein
T2 sequence (looked up): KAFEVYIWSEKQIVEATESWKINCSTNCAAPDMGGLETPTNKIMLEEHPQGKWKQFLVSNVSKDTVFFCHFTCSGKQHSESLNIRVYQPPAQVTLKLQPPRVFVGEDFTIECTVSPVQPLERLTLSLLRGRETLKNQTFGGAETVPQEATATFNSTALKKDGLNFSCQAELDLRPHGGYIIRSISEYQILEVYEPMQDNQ
Method: as §1

hLOX-1 = hLOX-1 (human, UniProt P78380 61-273)
Method: as §1

mTNFa = biological target: T3, mTNFa (mouse, UniProt P06804 80-235)
T3 construct: Non-target panel protein
T3 sequence (looked up): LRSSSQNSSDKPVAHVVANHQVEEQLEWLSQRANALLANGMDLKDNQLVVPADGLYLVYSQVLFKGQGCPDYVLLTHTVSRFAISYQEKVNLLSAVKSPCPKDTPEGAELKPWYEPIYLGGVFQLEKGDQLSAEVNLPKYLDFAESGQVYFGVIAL
Method: as §1

hVEGF = biological target: T4, hVEGF (human, UniProt P15692-4 27-191, limits assumed)
T4 construct: Non-target panel protein
T4 sequence (P15692 other isoform, or with tags, fused parts or gaps limits assumed): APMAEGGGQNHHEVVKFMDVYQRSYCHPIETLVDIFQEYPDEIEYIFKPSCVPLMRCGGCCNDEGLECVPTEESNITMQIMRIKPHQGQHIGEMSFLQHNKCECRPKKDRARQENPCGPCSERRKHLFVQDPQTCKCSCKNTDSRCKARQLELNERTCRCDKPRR
Method: as §1

hCXCL13 = biological target: T5, hCXCL13 (human, UniProt O43927 23-109)
T5 construct: Non-target panel protein
T5 sequence (looked up): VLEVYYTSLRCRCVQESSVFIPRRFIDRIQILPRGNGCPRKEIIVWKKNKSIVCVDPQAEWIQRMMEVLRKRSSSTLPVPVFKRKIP
Method: as §1

BSA = biological target: T6, BSA (UniProt P02769 25-607)
T6 construct: Non-target panel protein (albumins)
T6 sequence (P02769 25-607 limits assumed): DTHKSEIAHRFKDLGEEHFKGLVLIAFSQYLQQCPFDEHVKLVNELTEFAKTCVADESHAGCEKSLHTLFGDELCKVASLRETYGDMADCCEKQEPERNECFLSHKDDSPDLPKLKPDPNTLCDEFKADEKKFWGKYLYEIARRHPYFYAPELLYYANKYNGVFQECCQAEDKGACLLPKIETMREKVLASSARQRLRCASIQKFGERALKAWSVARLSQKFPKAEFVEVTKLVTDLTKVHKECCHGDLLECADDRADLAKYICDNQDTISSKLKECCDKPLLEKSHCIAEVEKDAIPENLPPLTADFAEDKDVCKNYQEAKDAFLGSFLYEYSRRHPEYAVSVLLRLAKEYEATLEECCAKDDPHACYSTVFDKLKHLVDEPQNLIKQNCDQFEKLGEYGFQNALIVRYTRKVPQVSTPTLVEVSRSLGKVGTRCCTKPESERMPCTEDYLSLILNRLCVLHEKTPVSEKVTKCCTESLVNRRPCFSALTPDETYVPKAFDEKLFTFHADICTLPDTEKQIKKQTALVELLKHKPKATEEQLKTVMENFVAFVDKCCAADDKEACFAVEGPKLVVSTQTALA
Method: as §1

T1 sequence (Q16620 32-430 limits assumed): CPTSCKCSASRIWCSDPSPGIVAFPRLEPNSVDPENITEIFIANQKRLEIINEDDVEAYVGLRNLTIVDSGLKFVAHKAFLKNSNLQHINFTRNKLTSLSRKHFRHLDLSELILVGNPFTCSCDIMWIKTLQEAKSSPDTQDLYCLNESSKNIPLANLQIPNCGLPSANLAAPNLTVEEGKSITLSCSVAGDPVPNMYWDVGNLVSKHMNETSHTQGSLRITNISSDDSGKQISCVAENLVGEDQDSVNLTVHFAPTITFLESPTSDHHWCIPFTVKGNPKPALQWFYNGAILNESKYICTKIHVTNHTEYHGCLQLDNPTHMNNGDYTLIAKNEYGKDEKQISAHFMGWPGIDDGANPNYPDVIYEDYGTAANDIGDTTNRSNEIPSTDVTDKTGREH

- binding result (hTRKB): no binding (tested: 500 nM)
- binding result (mICAM2): no binding (tested: 500 nM)
- binding result (hLOX-1): no binding (tested: 500 nM)
- binding result (mTNFa): no binding (tested: 500 nM)
- binding result (hVEGF): no binding (tested: 500 nM)
- binding result (hCXCL13): no binding (tested: 500 nM)
- binding result (BSA): no binding (tested: 500 nM)
B1: C7-ABS-RAGE IgG (human IgG1) (antibody, V domains shown)
VH: EVQLVESGGGLVQPGGSLRLSCAASGFTFSSYWMSWVRQAPGKGLEWVASIDQDGSNKYYPDSVKGRFTISRDNAKNSLYLQMNSLRAEDTAVYYCARGGDITTGLDYWGQGTLVTVSS
VL: DIQMTQSPSSLSASVGDRVTITCRASQSIGSYLNWYQQKPGKAPKLLIYRASSLASGVPSRFSGSGSGTDFTLTISSLQPEDFATYYCLEFDEHPLTFGGGTKVEIK
notes: Human IgG1 format
